Data set [1] concerns the target bovine serum albumin (BSA) (Bos taurus, UniProt P02769 P02769:25-607). The data set can be described thus: square wave voltammetry; no observable deviation in response, PBS. Particulars: tags: Sigma-Aldrich, lyophilized powder >96%; label: 3' methylene blue. As to the method:
(§1) The initial response spike is caused by injection of the analyte. Subsequent stabilisation of the response signal via this testing method occurs over 2-3 minutes. Crucially, significant concentrations of bovine serum albumin, and human serum albumin produce no observable deviation in response, confirming excellent selectivity against serum endogenous proteins that are well known to produce false positives in other sensors formats.

Data set [2] addresses human serum albumin (HSA) (Homo sapiens, UniProt P02768 P02768:25-609). Described as above. Particulars: label: 3' methylene blue. As to the method:
as §1

Data set [3] concerns the target T1, C-reactive protein (CRP) (UniProt P02741 P02741:19-224).
T1 sequence: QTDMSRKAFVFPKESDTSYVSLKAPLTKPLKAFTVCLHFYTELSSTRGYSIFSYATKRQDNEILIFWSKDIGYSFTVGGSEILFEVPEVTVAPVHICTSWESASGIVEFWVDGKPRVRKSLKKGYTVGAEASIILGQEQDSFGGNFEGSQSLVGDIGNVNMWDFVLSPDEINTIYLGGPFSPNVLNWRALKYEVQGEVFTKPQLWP
The data set can be described thus: square wave voltammetry on gold SPE, Hill-Langmuir fit of 48-hour sensor re-use data; BSA-doped PBS with Mg, room temperature not stated. Particulars: tags: abcam ab167710, HEK 293 expressed, >95% purity; chain copies: 5 (pentamer, stated); label: 3' methylene blue. How it is done: Refer to FIGS. 4A-4D for the following descriptions. To assess reusability of the prepared aptasensors, dose-response assays are conducted in BSA doped PBS buffer 48 hours after initial testing. Magnesium is used to supplement PBS buffer to more closely match the ion content found in serum with observations showing little difference between results obtained from the initial screening assay. […] Despite these uncertainties, linear range observed for used sensors is broadly maintained. For used sensors, the LOD calculated from linear regression is shown to be approximately 363 pM which matched well with an LOD value of approx. 374 pM derived from non-linear regression fits to the Hill-Langmuir (dose response) function described in section 2.6. Non-Linear fitting is achieved with good fitting (adjusted R₂=0.99). […] Here, concentration is provided in molar units, calculated using the CRP pentameric isoform weight of 120 kDa.

Data set [4] deals with T1, C-reactive protein (CRP). The data set can be described thus: square wave voltammetry; no response up to 500 nM CRP in PBS with 1 mM BSA. Particulars: tags: abcam ab167710, HEK 293 expressed, >95% purity; chain copies: 5 (pentamer, stated); label: 3' methylene blue. How it is done:
Refer to FIGS. 3A-3E for the following descriptions. To assess specificity of the CRP-targeting aptamer, initial assays are conducted in PBS (1×) buffer supplemented with bovine serum albumin ‘BSA’. Albumin is fixed at a concentration of 1 mM to reflect slightly higher concentrations than those found in serum. Control sensors are prepared in the same fashion as with test sensors using an excised version of the CRP-targeting aptamer sequence without flanking primer regions (FIG. 3D). […] A Limit of detection ‘LOD’ of 105.4 pM is calculated using linear regression, using n=3 independently prepared sensors. […] Here, CRP concentration is reported in molar units and calculate values based on the pentameric isoform weight of 115-120 kDa, as is reported by the commercial supplier and elsewhere.

Sequence of human serum albumin (HSA) (P02768 25-609, one chain of several): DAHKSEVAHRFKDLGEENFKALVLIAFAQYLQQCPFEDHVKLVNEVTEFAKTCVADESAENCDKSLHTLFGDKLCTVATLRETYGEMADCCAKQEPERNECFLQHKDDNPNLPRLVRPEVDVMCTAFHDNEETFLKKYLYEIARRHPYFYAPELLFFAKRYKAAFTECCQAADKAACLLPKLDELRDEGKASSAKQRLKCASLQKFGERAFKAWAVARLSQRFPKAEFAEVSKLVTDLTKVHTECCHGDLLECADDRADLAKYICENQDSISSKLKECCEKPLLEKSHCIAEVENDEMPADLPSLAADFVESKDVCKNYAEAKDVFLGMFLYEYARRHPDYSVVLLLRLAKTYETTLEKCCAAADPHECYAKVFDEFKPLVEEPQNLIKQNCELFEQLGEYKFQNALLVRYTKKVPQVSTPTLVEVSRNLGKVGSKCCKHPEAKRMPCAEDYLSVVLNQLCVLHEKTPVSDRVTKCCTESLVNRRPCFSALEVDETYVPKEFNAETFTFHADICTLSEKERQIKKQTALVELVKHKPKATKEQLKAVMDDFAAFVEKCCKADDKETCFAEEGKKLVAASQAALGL
Sequence of bovine serum albumin (BSA) (P02769 25-607, one chain of several): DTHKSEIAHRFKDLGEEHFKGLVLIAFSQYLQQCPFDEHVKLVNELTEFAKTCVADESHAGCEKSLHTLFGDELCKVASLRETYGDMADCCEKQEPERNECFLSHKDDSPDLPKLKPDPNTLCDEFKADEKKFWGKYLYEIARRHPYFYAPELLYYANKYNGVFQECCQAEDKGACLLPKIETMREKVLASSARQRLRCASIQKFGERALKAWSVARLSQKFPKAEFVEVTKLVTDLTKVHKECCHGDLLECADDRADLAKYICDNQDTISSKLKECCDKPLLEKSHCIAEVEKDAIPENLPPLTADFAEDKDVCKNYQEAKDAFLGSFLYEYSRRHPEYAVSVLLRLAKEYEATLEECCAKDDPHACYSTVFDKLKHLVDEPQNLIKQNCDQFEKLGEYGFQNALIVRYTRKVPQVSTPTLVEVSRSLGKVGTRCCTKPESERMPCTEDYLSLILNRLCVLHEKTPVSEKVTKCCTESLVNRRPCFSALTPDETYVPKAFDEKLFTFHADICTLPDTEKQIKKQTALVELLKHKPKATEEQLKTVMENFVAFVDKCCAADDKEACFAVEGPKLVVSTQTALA

B1: CRP-targeting aptamer (ssDNA)
DNA: GGCAGGAAGACAAACACGATGGGGGGGTATGATTTGATGTGGTTGTTGCATGATCGTGGTCTGTGGTGCTGT
modifications: 5' thiol modifier (C6-S-S), 3' methylene blue via C7 spacer
In the case of B1, the binding result in data set [1] and in data set [2] was “no binding” in each case. The molecule further yielded a Kd with C-reactive protein (CRP) [3] of 55.4 nM.

Regarding CGATGGGGGGGTATGATTTGATGTGGTTGTTGCATGATCG (ssDNA, 5' thiol modifier (C6-S-S), 3' methylene blue via C7 spacer) [CRP-targeting aptamer without flanking primer regions (control)], the binding result in the data set with C-reactive protein (CRP) [4] was “no binding”.

Values taken from US20250155401, “RAPID, SINGLE-STEP AND REAGENTLESS ELECTROCHEMICAL BIOSENSING METHODS, COMPOSITIONS AND DEVICES FOR NANOMOLAR DETECTION OF C-REACTIVE PROTEIN” (Advanced Biomedical Instrumentation Centre Limited, published 2025).
